Data from PMC11672316, “Identification of ANXA1 as a Novel Upstream Negative Regulator of Notch1 Function in AML” (Advanced Science, 2024).
Bridge positions count the residues as written; N and C are the ends. Ends that are not written are not given here. Peptide text beside a SMILES is read from it.

Tests used:
[1] = target: T1, ANXA1 (Homo sapiens, UniProt P04083); experiment: BLI analysis, NICD peptides to immobilized ANXA1; assay type: binding; details: for Koff: Octet Red96, ANXA1 immobilized on SSA sensor, peptides in SD buffer
T1 construct: made in house; host or cells: E. coli BL21
T1 sequence (P04083 1-346): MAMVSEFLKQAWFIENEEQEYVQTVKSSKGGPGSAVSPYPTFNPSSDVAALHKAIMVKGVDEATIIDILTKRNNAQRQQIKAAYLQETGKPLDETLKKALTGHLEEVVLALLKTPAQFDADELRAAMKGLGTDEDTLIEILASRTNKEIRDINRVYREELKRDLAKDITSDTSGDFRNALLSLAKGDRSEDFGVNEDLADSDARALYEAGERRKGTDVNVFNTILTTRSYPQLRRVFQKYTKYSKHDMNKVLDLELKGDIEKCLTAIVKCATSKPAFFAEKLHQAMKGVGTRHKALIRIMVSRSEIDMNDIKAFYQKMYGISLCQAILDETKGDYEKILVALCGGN
Method: (§1) AlphaFold2 and ClusPro servers were used to dock NICD and ANXA1.^[ [35] ^] The predictions were tested by GST‐pull down assay, bio‐layer interferometry (BLI) analysis, and chemical cross‐linking coupled with mass spectrometry. Details of these procedures are described in Materials and Methods (Supporting Information).
(§2) For bio‐layer interferometry (BLI) analyses performed by Octet Red96 system (Sartorius), purified NICD protein was immobilized on SA sensor (Sartorius) after labeling with Sulfo-NHS-Biotin (EZ-Link) and dialysis. To determine binding kinetics, five concentrations of purified ANXA1 protein were prepared with PBST (PBS containing 0.02% Tween-20) and measured from low to high concentrations by NICD-immobilized biosensors to obtain the association and dissociation sensorgram data. For detection of the interaction between protein and small molecular peptides, purified ANXA1 protein was immobilized on SSA sensor (Sartorius) to detect the binding kinetics of NICD peptides, which were diluted in SD buffer (PBST plus 0.1% w v^-1 BSA). The kinetic parameters Kon, Koff and KD were determined using Octct data analysis software.

[2] = system: KG1a cells
[3] = system: HL60 cells
[4] = system: NICD; experiment: BLI analysis, ANXA1 proteins to immobilized NICD; assay type: binding, human; details: for binding affinity with NICD: Figure 2E; for Koff / Kon / Kd: Octet Red96, biotinylated NICD immobilized on SA sensor; for Koff / Kon: ANXA1 protein in PBST; for Kd: five concentrations of ANXA1 protein in PBST (PBS containing 0.02% Tween-20)
Method: as §1, §2

[5] = target: intracellular domain of Notch1 (NICD), protein used in BLI and cross-linking; experiment: BLI; NICD with full-length ANXA1 or the C-terminal domain of ANXA1 at increasing concentrations; who was immobilised is not told in the main text (scheme in Figure 2D)
[6] = system: Notch1; experiment: GST-pull down assay of Notch1 from KG1a cell lysate; assay type: binding, human; details: western blotting, 4°C overnight; Figure S4C
Method: For GST-pull down assay, the purified GST fusion proteins were incubated with precleared GST resin (Solarbio) for 5 hours at 4°C. The precipitation was washed four times with PBS and captured the Notch1 protein from prepared cell lysates at 4°C overnight. The complexes were washed four times with PBS before being eluted in SDS-gel loading buffer and detected by western blotting.
Figure S4. GST pull down analysis of the interaction between ANXA1 and Notch1, related to Figure 2. (A) Schematic diagram of GST-tagged fusion protein structure of ANXA1 full-length, C-terminal, and N-terminal domain. (B) Coomassie blue-stained SDS gel image of GST-tagged fusion protein of full-length ANXA1, and N-terminal, and C-terminal domains of ANXA1. (C) Western blotting of Notch1 and ANXA1 expression in complexes pulled-down by GST-ANXA1 in sgANXA1#3 and sgControl cells of KG1a.

[7] = system: NICD (Δ2,050−2,060); experiment: BLI analysis of ANXA1 binding NICD (Δ2,050−2,060); parameters: species or system human; details: Figure S6E
Method: as §2
Figure S6. ANXA1 (214−228) and NICD (2,050−2,060) mediate the protein-protein interaction, related to Figure 2J. (A) mRNA expression of ANXA1 detected by qPCR in KG1a-sgANXA1 and HL60-sgANXA1 cells. […] (C) The cell proliferation ability detected by CCK8 assay after 96 hours of culture of KG1a or HL60 cells stably transfected with sgANXA1 or sgControl plasmids. (D) The cell proliferation ability detected by CCK8 assay after 96 hours of culture of KG1a-sgANXA1 and HL60-sgANXA1 cells transiently transfected with ANXA1 (Δ214−228) plasmid. […]

[8] = target: T2, GST-tagged full-length ANXA1 (Annexin A1) (human, UniProt P04083 1-346); experiment: BLI; Octet Red96; purified ANXA1 protein immobilised on SSA sensor; NICD peptides diluted in SD buffer (PBST plus 0.1% w/v BSA); details: both partners purified
T2 construct: Annexin A1 (ANXA1), human, full length; In the BLI with peptides it was immobilised on an SSA sensor; also called GST-ANXA1; source: E. coli BL21, purified (GST resin)
T2 sequence (looked up): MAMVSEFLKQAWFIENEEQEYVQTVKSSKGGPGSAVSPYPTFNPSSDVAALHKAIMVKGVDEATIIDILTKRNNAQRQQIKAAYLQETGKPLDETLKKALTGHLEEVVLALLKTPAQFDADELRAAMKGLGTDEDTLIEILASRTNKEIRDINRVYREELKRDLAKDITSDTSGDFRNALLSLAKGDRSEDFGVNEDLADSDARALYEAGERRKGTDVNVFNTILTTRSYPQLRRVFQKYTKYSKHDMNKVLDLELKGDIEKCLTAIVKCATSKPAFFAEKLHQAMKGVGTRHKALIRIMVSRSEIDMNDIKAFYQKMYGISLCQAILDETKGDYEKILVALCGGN

CSCC[C@H](NC(=O)[C@H](CC(=O)O)NC(=O)[C@H](CCCCN)NC(=O)[C@H](CC(N)=O)NC(=O)[C@H](C)NC(=O)CNC(=O)[C@H](CC(N)=O)NC(=O)[C@H](CCCCN)NC(=O)[C@H](CC(C)C)NC(=O)[C@@H]1CSSC[C@H](NC(=O)[C@H](C)NC(=O)[C@H](CO)NC(=O)[C@@H](N)CCCCN)C(=O)N[C@@H](Cc2c[nH]cn2)C(=O)N[C@@H](Cc2c[nH]c3ccccc23)C(=O)N[C@@H](C)C(=O)N[C@@H](C)C(=O)N[C@@H](C)C(=O)N[C@@H](C(C)C)C(=O)N[C@@H](CC(N)=O)C(=O)N[C@@H](CC(N)=O)C(=O)N[C@@H](C(C)C)C(=O)N[C@@H](CC(=O)O)C(=O)N[C@@H](C)C(=O)N[C@@H](C)C(=O)N[C@@H](C(C)C)C(=O)N[C@@H](C(C)C)C(=O)N1)C(=O)N[C@@H](CCC(N)=O)C(=O)N[C@@H](CC(N)=O)C(=O)N[C@@H](CC(N)=O)C(=O)N[C@@H](CCCNC(=N)N)C(=O)O [NICD-5c] (H-KSACHWAAAVNNVDAAVVCLKNGANKDMQNNR-OH; disulfide 4-19)
Koff [1]: 1.08×10^-2 1 s^-1

KSALHWAAAVNNVDAAVVLLKNGANKDMQNNR [NICD-5l]
binding affinity with GST-ANXA1 ([1]; Figures 2I and S5B): increased the binding affinity with GST‐ANXA1 in a dose‐dependent manner
Koff [1]: 1.27×10^-2 1 s^-1
inhibition of cell proliferation ([2]; KG1a, CCK8, 72 h, Figure 2K, means ± s.e.m. of three independent experiments): significantly inhibited the proliferation of KG1a and HL60 cells in a dose‐dependent manner
inhibition of cell proliferation ([3]; HL60, CCK8, 72 h, Figure 2K, means ± s.e.m. of three independent experiments): significantly inhibited the proliferation of KG1a and HL60 cells in a dose‐dependent manner

RKKRRQRRR [TAT, reference compound]
cell damage [2]: barely caused cell damage
cell damage [3]: barely caused cell damage

B1: GST-tagged C-terminal domain of ANXA1 (domain or fragment)
chain: PSSDVAALHKAIMVKGVDEATIIDILTKRNNAQRQQIKAAYLQETGKPLDETLKKALTGHLEEVVLALLKTPAQFDADELRAAMKGLGTDEDTLIEILASRTNKEIRDINRVYREELKRDLAKDITSDTSGDFRNALLSLAKGDRSEDFGVNEDLADSDARALYEAGERRKGTDVNVFNTILTTRSYPQLRRVFQKYTKYSKHDMNKVLDLELKGDIEKCLTAIVKCATSKPAFFAEKLHQAMKGVGTRHKALIRIMVSRSEIDMNDIKAFYQKMYGISLCQAILDETKGDYEKILVALCG
binding affinity with NICD [4]: dose‐dependently increased the binding affinity with NICD
Koff [4]: 1.68×10^-2 1 s^-1
Kon [4]: 3.15×10^3 1 Ms^-1
Kd [4]: 5.32 µM
Kd [5]: 5.32 µM

B2: GST-tagged full-length Annexin A1 (ANXA1) (natural protein)
chain: MAMVSEFLKQAWFIENEEQEYVQTVKSSKGGPGSAVSPYPTFNPSSDVAALHKAIMVKGVDEATIIDILTKRNNAQRQQIKAAYLQETGKPLDETLKKALTGHLEEVVLALLKTPAQFDADELRAAMKGLGTDEDTLIEILASRTNKEIRDINRVYREELKRDLAKDITSDTSGDFRNALLSLAKGDRSEDFGVNEDLADSDARALYEAGERRKGTDVNVFNTILTTRSYPQLRRVFQKYTKYSKHDMNKVLDLELKGDIEKCLTAIVKCATSKPAFFAEKLHQAMKGVGTRHKALIRIMVSRSEIDMNDIKAFYQKMYGISLCQAILDETKGDYEKILVALCGGN
Kd [5]: 18.4 µM

B3: GST-tagged ANXA1: GST-tagged fusion protein of full-length ANXA1 (protein)
chain: MAMVSEFLKQAWFIENEEQEYVQTVKSSKGGPGSAVSPYPTFNPSSDVAALHKAIMVKGVDEATIIDILTKRNNAQRQQIKAAYLQETGKPLDETLKKALTGHLEEVVLALLKTPAQFDADELRAAMKGLGTDEDTLIEILASRTNKEIRDINRVYREELKRDLAKDITSDTSGDFRNALLSLAKGDRSEDFGVNEDLADSDARALYEAGERRKGTDVNVFNTILTTRSYPQLRRVFQKYTKYSKHDMNKVLDLELKGDIEKCLTAIVKCATSKPAFFAEKLHQAMKGVGTRHKALIRIMVSRSEIDMNDIKAFYQKMYGISLCQAILDETKGDYEKILVALCGGN
modifications: left off: GST, end not stated, kept
pull-down of Notch1 from cell lysate [6]: Notch1 in the cell lysate could be pulled down by GST‐tagged ANXA1

B4: ANXA1: Annexin A1, Ca2+-dependent phospholipid-binding protein (protein)
chain: MAMVSEFLKQAWFIENEEQEYVQTVKSSKGGPGSAVSPYPTFNPSSDVAALHKAIMVKGVDEATIIDILTKRNNAQRQQIKAAYLQETGKPLDETLKKALTGHLEEVVLALLKTPAQFDADELRAAMKGLGTDEDTLIEILASRTNKEIRDINRVYREELKRDLAKDITSDTSGDFRNALLSLAKGDRSEDFGVNEDLADSDARALYEAGERRKGTDVNVFNTILTTRSYPQLRRVFQKYTKYSKHDMNKVLDLELKGDIEKCLTAIVKCATSKPAFFAEKLHQAMKGVGTRHKALIRIMVSRSEIDMNDIKAFYQKMYGISLCQAILDETKGDYEKILVALCGGN
modifications: left off: GST, end not stated, kept
interaction with NICD lacking 2050–2060 [7]: the interaction between NICD and ANXA1 was also lost due to the deletion of 2050–2060 amino acid domain of NICD

B5: Full-length ANXA1: purified full-length Annexin A1 protein (protein)
chain: MAMVSEFLKQAWFIENEEQEYVQTVKSSKGGPGSAVSPYPTFNPSSDVAALHKAIMVKGVDEATIIDILTKRNNAQRQQIKAAYLQETGKPLDETLKKALTGHLEEVVLALLKTPAQFDADELRAAMKGLGTDEDTLIEILASRTNKEIRDINRVYREELKRDLAKDITSDTSGDFRNALLSLAKGDRSEDFGVNEDLADSDARALYEAGERRKGTDVNVFNTILTTRSYPQLRRVFQKYTKYSKHDMNKVLDLELKGDIEKCLTAIVKCATSKPAFFAEKLHQAMKGVGTRHKALIRIMVSRSEIDMNDIKAFYQKMYGISLCQAILDETKGDYEKILVALCGGN
modifications: left off: GST, end not stated, kept
notes: purified full-length Annexin A1 protein
binding affinity with NICD [4]: dose‐dependently increased the binding affinity with NICD
Koff [4]: 2.88×10^-2 1 s^-1
Kon [4]: 1.57×10^3 1 Ms^-1
Kd [4]: 18.4 µM

B6: NICD-5l peptide (peptide)
peptide: KSALHWAAAVNNVDAAVVLLKNGANKDMQNNR
notes: also called NICD-5 linear peptide; source: synthetic peptide (solid phase, Wang resin)
Kd [8]: 154 µM

B7: NICD-5c peptide (peptide)
peptide: KSACHWAAAVNNVDAAVVCLKNGANKDMQNNR-OH
modifications: bridge 4-19; also: cyclisation chemistry not given here
notes: also called NICD-5 cyclic peptide; source: synthetic peptide (solid phase, Wang resin)
Kd [8]: 223 µM
